{"source": "paper PMC10731240", "key": {"[1]": {"target": "Leishmania tarentolae PNUTS, endogenously HA-tagged", "test": "co-IP (PP1-8e-Pd pull-down, Western blot band quantification)", "conditions": "parent: 1; read off a plot"}, "[2]": {"target": "Leishmania tarentolae PNUTS, endogenously HA-tagged", "test": "co-IP (anti-protein A affinity resin, Western blot band quantification)", "conditions": "parent: 1; read off a plot"}, "[3]": {"target": "LtPP1-8e with ^310DHK^312 mutated to alanine, Pd-tagged (Leishmania tarentolae)", "test": "co-IP; L. tarentolae cell extract; Pd-tagged PP1 (overexpressed from pSNSAP1) held on IgG Sepharose beads, 4 h at 4 °C, washed three times in PA-150 buffer; endogenously HA-tagged PNUTS detected by anti-HA Western blot; %IP relative to WT PP1-8e"}, "[4]": {"target": "LtPP1-8e with ^260LP^261 mutated to alanine, Pd-tagged (Leishmania tarentolae)", "test": "co-IP; L. tarentolae cell extract; Pd-tagged PP1 (overexpressed from pSNSAP1) held on IgG Sepharose beads, 4 h at 4 °C, washed three times in PA-150 buffer; endogenously HA-tagged PNUTS detected by anti-HA Western blot; %IP relative to WT PP1-8e"}, "[5]": {"target": "LtPP1-8e CΔ23 (23 amino acid C-terminal extension deleted), Pd-tagged (Leishmania tarentolae)", "test": "co-IP; L. tarentolae cell extract; Pd-tagged PP1 (overexpressed from pSNSAP1) held on IgG Sepharose beads, 4 h at 4 °C, washed three times in PA-150 buffer; endogenously HA-tagged PNUTS detected by anti-HA Western blot; %IP relative to WT PP1-8e"}, "[6]": {"target": "LtPP1-8e 109–114A (GGVFG to alanine), Pd-tagged (Leishmania tarentolae)", "test": "co-IP; L. tarentolae cell extract; Pd-tagged PP1 (overexpressed from pSNSAP1) held on IgG Sepharose beads, 4 h at 4 °C, washed three times in PA-150 buffer; endogenously HA-tagged PNUTS detected by anti-HA Western blot; %IP relative to WT PP1-8e"}, "[7]": {"target": "LtPP1-8e CΔ11 (final 11 amino acids deleted), Pd-tagged (Leishmania tarentolae)", "test": "co-IP; L. tarentolae cell extract; Pd-tagged PP1 (overexpressed from pSNSAP1) held on IgG Sepharose beads, 4 h at 4 °C, washed three times in PA-150 buffer; endogenously HA-tagged PNUTS detected by anti-HA Western blot; %IP relative to WT PP1-8e"}, "[8]": {"target": "LtPP1-8e 359 to 362A, Pd-tagged (Leishmania tarentolae)", "test": "co-IP; L. tarentolae cell extract; Pd-tagged PP1 (overexpressed from pSNSAP1) held on IgG Sepharose beads, 4 h at 4 °C, washed three times in PA-150 buffer; endogenously HA-tagged PNUTS detected by anti-HA Western blot; %IP relative to WT PP1-8e"}, "[9]": {"target": "LtPP1-8e 354–358A, Pd-tagged (Leishmania tarentolae)", "test": "co-IP; L. tarentolae cell extract; Pd-tagged PP1 (overexpressed from pSNSAP1) held on IgG Sepharose beads, 4 h at 4 °C, washed three times in PA-150 buffer; endogenously HA-tagged PNUTS detected by anti-HA Western blot; %IP relative to WT PP1-8e"}, "[10]": {"target": "LtPP1-8e I360A, Pd-tagged (Leishmania tarentolae)", "test": "co-IP; L. tarentolae cell extract; Pd-tagged PP1 (overexpressed from pSNSAP1) held on IgG Sepharose beads, 4 h at 4 °C, washed three times in PA-150 buffer; endogenously HA-tagged PNUTS detected by anti-HA Western blot; %IP relative to WT PP1-8e"}, "[11]": {"target": "LtPP1-8e D290A, Pd-tagged (Leishmania tarentolae)", "test": "co-IP; L. tarentolae cell extract; Pd-tagged PP1 (overexpressed from pSNSAP1) held on IgG Sepharose beads, 4 h at 4 °C, washed three times in PA-150 buffer; endogenously HA-tagged PNUTS detected by anti-HA Western blot; %IP relative to WT PP1-8e"}, "[12]": {"target": "LtPP1-8e F305A, Pd-tagged (Leishmania tarentolae)", "test": "co-IP; L. tarentolae cell extract; Pd-tagged PP1 (overexpressed from pSNSAP1) held on IgG Sepharose beads, 4 h at 4 °C, washed three times in PA-150 buffer; endogenously HA-tagged PNUTS detected by anti-HA Western blot; %IP relative to WT PP1-8e"}, "[13]": {"target": "LtPP1-8e 109–134Δ (26 amino acid insertion deleted), Pd-tagged (Leishmania tarentolae)", "test": "co-IP; L. tarentolae cell extract; Pd-tagged PP1 (overexpressed from pSNSAP1) held on IgG Sepharose beads, 4 h at 4 °C, washed three times in PA-150 buffer; endogenously HA-tagged PNUTS detected by anti-HA Western blot; %IP relative to WT PP1-8e"}, "[14]": {"target": "LtPP1-8e I217A, Pd-tagged (Leishmania tarentolae)", "test": "co-IP; L. tarentolae cell extract; Pd-tagged PP1 (overexpressed from pSNSAP1) held on IgG Sepharose beads, 4 h at 4 °C, washed three times in PA-150 buffer; endogenously HA-tagged PNUTS detected by anti-HA Western blot; %IP relative to WT PP1-8e"}, "[15]": {"target": "LtPP1-8e 263–265A, Pd-tagged (Leishmania tarentolae)", "test": "co-IP; L. tarentolae cell extract; Pd-tagged PP1 (overexpressed from pSNSAP1) held on IgG Sepharose beads, 4 h at 4 °C, washed three times in PA-150 buffer; endogenously HA-tagged PNUTS detected by anti-HA Western blot; %IP relative to WT PP1-8e"}, "[16]": {"target": "LtPP1-8e D292A, Pd-tagged (Leishmania tarentolae)", "test": "co-IP; L. tarentolae cell extract; Pd-tagged PP1 (overexpressed from pSNSAP1) held on IgG Sepharose beads, 4 h at 4 °C, washed three times in PA-150 buffer; endogenously HA-tagged PNUTS detected by anti-HA Western blot; %IP relative to WT PP1-8e"}, "[17]": {"target": "LtPNUTS D101A, Pd-tagged (Leishmania tarentolae)", "test": "co-IP; L. tarentolae cell extract; Pd-tagged PNUTS (overexpressed from pSNSAP1) held on IgG Sepharose beads, 4 h at 4 °C, washed three times in PA-150 buffer; endogenously HA-tagged PP1-8e, JBP3 or Wdr82 detected by anti-HA Western blot; %IP relative to WT PNUTS"}, "[18]": {"target": "LtPNUTS R94A, Pd-tagged (Leishmania tarentolae)", "test": "co-IP; L. tarentolae cell extract; Pd-tagged PNUTS (overexpressed from pSNSAP1) held on IgG Sepharose beads, 4 h at 4 °C, washed three times in PA-150 buffer; endogenously HA-tagged PP1-8e, JBP3 or Wdr82 detected by anti-HA Western blot; %IP relative to WT PNUTS"}, "[19]": {"target": "LtPNUTS V97A, Pd-tagged (Leishmania tarentolae)", "test": "co-IP; L. tarentolae cell extract; Pd-tagged PNUTS (overexpressed from pSNSAP1) held on IgG Sepharose beads, 4 h at 4 °C, washed three times in PA-150 buffer; endogenously HA-tagged PP1-8e, JBP3 or Wdr82 detected by anti-HA Western blot; %IP relative to WT PNUTS"}, "[20]": {"target": "LtPNUTS L111A, Pd-tagged (Leishmania tarentolae)", "test": "co-IP; L. tarentolae cell extract; Pd-tagged PNUTS (overexpressed from pSNSAP1) held on IgG Sepharose beads, 4 h at 4 °C, washed three times in PA-150 buffer; endogenously HA-tagged PP1-8e, JBP3 or Wdr82 detected by anti-HA Western blot; %IP relative to WT PNUTS"}, "[21]": {"target": "Leishmania tarentolae PP1-8e, endogenously HA-tagged", "test": "co-IP (anti-protein A affinity resin, Western blot band quantification)", "conditions": "parent: 1; read off a plot"}}}
{"substance": "Leishmania tarentolae PP1-8e, Pd-tagged (WT) S126A; D129A; D130A; Y133A; S134A", "values": [{"measurement": "ratio to parent", "setting": "[1]", "value": 0.84}]}
{"substance": "Leishmania tarentolae PP1-8e, Pd-tagged (WT) Y96A", "values": [{"measurement": "ratio to parent", "setting": "[2]", "value": 0.68}]}
{"substance": "Leishmania tarentolae PP1-8e, Pd-tagged (WT) T348A", "values": [{"measurement": "ratio to parent", "setting": "[2]", "value": 0.82}]}
{"substance": "Leishmania tarentolae PP1-8e, Pd-tagged (WT) I346A", "values": [{"measurement": "ratio to parent", "setting": "[2]", "value": 0.025}]}
{"substance": "Leishmania tarentolae PNUTS, endogenously HA-tagged (natural protein)", "values": [{"measurement": "percent decrease of co-IP against WT PP1-8e", "setting": "[3]", "value": 20, "unit": "%"}, {"measurement": "percent of co-IP lost against WT PP1-8e", "setting": "[4]", "value": 80, "unit": "%"}, {"measurement": "percent loss of co-IP against WT PP1-8e", "setting": "[5]", "value": 80, "unit": "%"}, {"measurement": "percent reduction of co-IP against WT PP1-8e", "setting": "[6]", "value": 80, "unit": "%"}, {"measurement": "percent reduction of co-IP against WT PP1-8e", "setting": "[7]", "value": 30, "unit": "%"}, {"measurement": "percent reduction of co-IP against WT PP1-8e", "setting": "[8]", "value": 80, "unit": "%"}, {"measurement": "percent reduction of co-IP against WT PP1-8e", "setting": "[9]", "value": 50, "unit": "%"}, {"measurement": "percent reduction of co-IP against WT PP1-8e", "setting": "[10]", "value": 80, "unit": "%"}, {"measurement": "percent reduction of co-IP against WT PP1-8e", "setting": "[11]", "value": 50, "unit": "%"}, {"measurement": "percent reduction of co-IP against WT PP1-8e", "setting": "[12]", "value": 80, "unit": "%"}, {"measurement": "percent reduction of co-IP against WT PP1-8e", "setting": "[13]", "value": 80, "unit": "%"}, {"measurement": "percent reduction of co-IP against WT PP1-8e", "setting": "[14]", "value": 50, "unit": "%"}, {"measurement": "percent reduction of co-IP against WT PP1-8e", "setting": "[15]", "value": 90, "unit": "%"}, {"measurement": "percent reduction of co-IP against WT PP1-8e", "setting": "[16]", "value": 60, "unit": "%"}]}
{"substance": "Leishmania tarentolae PP1-8e, endogenously HA-tagged (enzyme)", "values": [{"measurement": "percent reduction of co-IP against WT PNUTS", "setting": "[17]", "value": 80, "unit": "%"}, {"measurement": "percent reduction of co-IP against WT PNUTS", "setting": "[18]", "value": 50, "unit": "%"}, {"measurement": "fold decrease of co-IP against WT PNUTS", "setting": "[19]", "value": 5, "unit": "fold"}, {"measurement": "percent reduction of co-IP against WT PNUTS", "setting": "[20]", "value": 80, "unit": "%"}]}
{"substance": "Leishmania tarentolae PNUTS, Pd-tagged (WT, full-length) K95A", "values": [{"measurement": "ratio to parent", "setting": "[21]", "value": 1}]}
{"substance": "Leishmania tarentolae PP1-8e, Pd-tagged (WT) D265A", "values": [{"measurement": "ratio to parent", "setting": "[1]", "value": 0.51}]}
{"substance": "Leishmania tarentolae PNUTS, Pd-tagged (WT, full-length) H114A; V115A", "values": [{"measurement": "ratio to parent", "setting": "[21]", "value": 0.17}]}
{"substance": "Leishmania tarentolae PNUTS, Pd-tagged (WT, full-length) R125A", "values": [{"measurement": "ratio to parent", "setting": "[21]", "value": 0.92}]}
{"substance": "Leishmania tarentolae PP1-8e, Pd-tagged (WT) R314A", "values": [{"measurement": "ratio to parent", "setting": "[2]", "value": 0.01}]}
{"substance": "Leishmania tarentolae PP1-8e, Pd-tagged (WT) F307A", "values": [{"measurement": "ratio to parent", "setting": "[2]", "value": 0}]}
{"substance": "Leishmania tarentolae PP1-8e, Pd-tagged (WT) D116A; K118A; K119A; R121A", "values": [{"measurement": "ratio to parent", "setting": "[1]", "value": 0.79}]}
{"substance": "Leishmania tarentolae PNUTS, Pd-tagged (WT, full-length) W99A", "values": [{"measurement": "ratio to parent", "setting": "[21]", "value": 0.08}]}
{"substance": "Leishmania tarentolae PNUTS, Pd-tagged (WT, full-length) F118A", "values": [{"measurement": "ratio to parent", "setting": "[21]", "value": 0.22}]}
